Assay results taken from the DeepSol protein solubility set.

test: soluble on expression in E. coli; label from the status in PepcDB or PDB records

Sequence	soluble on expression in E. coli
AEAAKPATAADSKAAFKNDDQKSAYALGASLGRYMENSLKEQEKLGIKLDKDQLIAGVQDAFADKSKLSDQEIEQTLQAFEARVKSSAQAKMEKDAADNEAKGKEYREKFAKEKGVKTSSTGLVYQVVEAGKGEAPKDSDTVVVNYKGTLIDGKEFDNSYTRGEPLSFRLDGVIPGWTEGLKNIKKGGKIKLVIPPELAYGKAGVPGIPPNSTLVFDVELLDVKPAPKADAKPEADAKAADSAKK	soluble
MGSDKIHHHHHHMFSDFKKDFCLANPGYLLSHSVGRPLKSTEQVFKEAFFAPWQDSGREPWGQWLSVIDDFTFALSKLFNGHQKDFCPQVNLSSALAKILMSLARLNREHAVVLMSEIDFPSMGFAIKKALPASCEVRFIPKTLDITDANVWDAHMGSDIDLVFVSHAYSNTGQQAPLANILAMARQYGCLSVVDVAQSAGIIPLNLAQLQPDFLIGSSVKWLCSGPGAAYLWVNPSIIDSCQPKDVGWFSHENPFEFNIHDFRYHNSALRFWGGTPSIAPYAIAAHSIHYFADIGVEQLRKGNQLLIDIVAEALDQEFVSPREIEKRSGTLVLQFGEQQGQIMAALAKANISVDARSMGIRISPHIYNDKADIQLLLSVIKAHR	not soluble
VRMILDTIPKKNRHLVTTHDGYSYLGDAYGLSIAGFVSPNPSVEPSPRDIIALTRTLENLHVPAVFIEPQLALRANHLTVTADKLGIQVCRIYGDSLDDEVPTYLDFMKYNAHSLARCLGQSEGK	not soluble
ANEMTYEQLARELLLVGPAPTNEDLKLRYLDVLIDNGLNPPGPPKRILIVGAGIAGLVAGDLLTRAGHDVTILEANANRVGGRIKTFHAKKGEPSPFADPAQYAEAGAMRLPSFHPLTLALIDKLGLKRRLFFNVDIDPQTGNQDAPVPPVFYKSFKDGKTWTNGAPSPEFKEPDKRNHTWIRTNREQVRRAQYATDPSSINEGFHLTGCETRLTVSDMVNQALEPVRDYYSVKQDDGTRVNKPFKEWLAGWADVVRDFDGYSMGRFLREYAEFSDEAVEAIGTIENMTSRLHLAFFHSFLGRSDIDPRATYWEIEGGSRMLPETLAKDLRDQIVMGQRMVRLEYYDPGRDGHHGELTGPGGPAVAIQTVPEGEPY	soluble
MGSDKIHHHHHHMSNEFDSDRYSTYWAEEWLDVKQYSPIGRHTRRKIMQLLARCPAPDTFADFGSGEGSLLSMVHAKYPAARLFGCDFASESVRRCRQRLPQAEIVLKDLTDPEPPFAGRVSVGVCSEVLEHIEDDARALHNLGTWAEHVIITVPGGELDESSRAVGHLRHYTKDSLRGLARRAGLEVLHLEEWGFPFSYPWYARVRNKAGYGMMVGRYSMRKKLLCHALYLLFFGNDLFSSGNKLFMLCRGSKA	not soluble
IHTMWKGTISFGLVNIPIKLHAATENKDVRLRQLHKECKTPINYLKVCPNCDAEVEPNDIVKAYEYAKNKFVELDEEELASLKKEQEDKAVEIIDFVKLQEIDPIYFDKSYYMSPGDGGGKAYTLLREALAESEKIGVAKIIIRAKEHLAVIRVYKNTLLMETIHFPDEVRAVDQVPNVPE	not soluble
MGGGRMGQHVETLVIGAGPAGLTTAYTLAKAGRGVTVLEMDETYVGGISRTVDYKGFKFDIGGHRFFSKSQEIVDLWNEILPDDFIDRPRLSRIYYREKFYAYPLKAFEALANLGVWTAAKCMASFGWAKLTPIAAPTTFHQWVRNQFGEKLFSIFFKTYTEKVWGMSCDEISADWASQRIKGLDLGAAIIDGVKRSLGLRGKAAEGGPKTLIESFRYPRKGPGMMWEACADKVMALGGDVRMGRKVDGLHFDKIAKLWTVAVTCADGRKEIYTADNVVSSAPIRELMQSISPTPISVFHAGELMYRDFITVVLIGKPQKELPDNWIYIHDPSVKVGRVQNFRSWSPEMIPDGVSTCLGLEYFCFEGDGLWVTSDEELVAQAKREIGKIGLMAPADVYDACVVRQHKAYPVYDDAYAEHVKMIRLDLKMHFPGLHLVGRNGMHKYNNQDHAMMTGLLTAENIIAGETLHDVWEVNEDAEYGEAGVSGARQALRSERAVPTKVAALEHHHHHH	not soluble
MGHGEEPLTATYKTQRPPWIGLWSDREYKGRADWWKEPGLEDSVTRSGKLRLYRARFREEDPDWYDPKVKDGESLAGPFGLDSKKTKNLTKKGDQPGELSEFQNKVYEGSHQFKAIAEKFGISKEHPGLSVSPTLSDNMLTPKDELGRNAVLPNSWYPAGPRFFDSPLNEGSFWKGLAAAKYAGILLAPYTMLEIRALNTVSVSEFSPRTYMKRYLQLAPFPLAVAFAWGFSLSAASSIRHKDDVHNHWFASVAVGSTVATMKSNVALGTTAAIFTAILGAFWQYQRHSETGLQGMTAHPQSAGIWGGPLLWQKMQLGNADVPTTRY	not soluble
MGSDKIHHHHHHVNIQEQFLGSGSRGSYELHLVDRRPKDVLEQAEALPFWKQDYTQLDKGAFSGAVTSVSCQGIQIFREKMNRAVDQLASAPADTYVIGLPTMIEGEATWGMLPVKQDSLITLNKNTELLFRTSHCSEIAAAVISAQRLEEYAALVEWVDLREIMRKVKAVEQISSTIANRLMTSLVGGTRYISDVHESASVKHMWPNFEEDLMSTCLQALVQAKDSINHHYDHRIHRYIVNRVRDFTLLNSCCPLTISELCIELRVSRRTLNHAFLRVLGITPVAYMRNVRLHRVRAELQSAPDSVTSIANVATKWGFWHMSLFSRYYRELFGECPNKTLERTRLHKA	not soluble
MGSDKIHHHHHHAQQRTEYNRKGDEAMKRLDYSDAKMWYEEGVSQCDAYSIDQLTTIWLSNERMRPSMRSLMNKCLNCLTVKATEDDPDAISKLIIYYSEGIGTPKSEELATYWKEYQEILLKPAEPAAQPIDSAAVSPKKRMEFFAGYSYSIESPYGITVGGMGQRFGWYVRFKTNMSFMNYTDECNNQGQIIKFSNSEGESYELNTGKSSKTNSIAGTAGLIVKCFPWLYASVGLGYGERALLHSFTTHSYENYDSTREVWCRNIDSSYKGVAAEVDLMMKITNSVFISVGCNTVNFKYLDLNAGLGVFF	not soluble
SMSAPAGEPPAPVRLRKNVCYVVLAVFLSEQDEVLLIQEAKRECRGSWYLPAGRMEPGETIVEALQREVKEEAGLHCEPETLLSVEERGPSWVRFVFLARPTGGILKTSKEADAESLQAAWYPRTSLPTPLRAHDILHLVELAAQYRQQARHPLIL	soluble
MGSDKIHHHHHHMTVLYKGSLKQNNDPFHVTLLSKEHIEQILFLQNVVVEGLEDKSRLQPLSQEEFQYILEGNGMMIGAFIKNELIAFRALLVPPIDDEHLGLDIGLPESELHRVIYQEISNVHPNCRGNGMQKILATVIMDELQKENGKYDYVCCTVAPFNIPSLKDKFSQGMEIAALKEKYGGSMRYVFVKELREDKEKDWTEIKSVPMNNAGGQQALLSEGYRGYEMEKVDEDFVVKFGR	not soluble
MGSDKIHHHHHHAVSETISETAWCLDGFERPTGVNPVIKPLPTKFYCPMREDSVAWEESDTFNPAATIYDGKIVVMYRAEDNSAQGIGSRTSRLGYATSTDGIHFERDTKPAFYPAKDNQAENECPGGTEDPRIAMTEDGTYVLLYTQWNRKVPRLAVATSKDLKHWTKFGPAFEKAYNGKFKDEATKSASLVTTLKGDKQVIAKVNGKYFMYWGEKNVYAATSDNLIDWDPLLDENGELLKLFSPRSGYFDSQLTECGPPAILTKDGIVLLYNGKNEPGEKGDTAYPANSYCAGQALFDVNNPTKLIGRLDKPFLQPTDDFEKSGQYPAGTVFVEGLVYYRNKWYLYYGCADSFVAVAVSDKQLNF	not soluble
MLKQTFLLSALLFGLSACQSTDVAKQDTVPLQGSWHIEAVQGQPTVDYSPAQITFDAEGKISGNNSCNNFFGQYSQQGQELKIIPGGSTMKACVDALMQQEHKVMQALPLVAKAKLVEGRLTLLSSDDKAVFVLSQLK	soluble
MGSDKIHHHHHHVLKELNQLMDHIERHLTEELSGMDIVRITGVSEYHFRRMFSYMSGMTLNEYIRNRRLSQANINLVNQHSVTEVAYEYGYQSIEGFSRAFREWSGFLPSEVIKNKIQKSFPRFTFYIDIKGGVSMEFKIERKSQFHVVGVSKRVPIQFEGVNHSIVELAQSITPQQRQEMQQLADLYPETVLNVSFDFDEGYLEEQGSLTHMIGFATSRQNPYGDLEQITIEDSLWAVFPNTGPFPQMLQETMAKTYAEWLPTSGYELVDLPSILFTNHEDDSLNVYSEVWVPVKEKTTS	not soluble
